Patent US20220288124A1 (AUGUSTA UNIVERSITY RESEARCH INSTITUTE, published 2022)
“And” between values parts separate entries of the source, which are not always exact repeats. Equal entries are not always repeated.

T1: N1 peptide (AA25-39 of hGPC3) (human, UniProt P51654 25-39)
T1 construct: range 25-39
T1 peptide (looked up): QPPPPPPDATCHQVR

T2: N2 (30-68) (human, UniProt P51654)
T2 construct: overlapping synthetic peptide
T2 peptide (looked up): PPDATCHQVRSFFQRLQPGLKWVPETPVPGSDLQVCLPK

T3: N3 (59-97) (human, UniProt P51654)
T3 construct: overlapping synthetic peptide
T3 peptide (looked up): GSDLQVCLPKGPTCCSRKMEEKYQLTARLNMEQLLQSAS

T4: N4 (88-126) (human, UniProt P51654)
T4 construct: overlapping synthetic peptide
T4 peptide (looked up): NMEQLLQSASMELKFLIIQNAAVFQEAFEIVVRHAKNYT


How the values were obtained:
[1] = biological target: T5, soluble hGPC3 protein (recombinant human glypican 3) (human, UniProt P51654 25-560, limits assumed); experiment: ELISA of recombinant mAb on hGPC3, OD450
T5 construct: The construct used in ELISA and BLI and as FITC-labelled protein is not further defined; also called rhGPC3; FITC-labeled hGPC3
T5 sequence (P51654 25-560 limits assumed): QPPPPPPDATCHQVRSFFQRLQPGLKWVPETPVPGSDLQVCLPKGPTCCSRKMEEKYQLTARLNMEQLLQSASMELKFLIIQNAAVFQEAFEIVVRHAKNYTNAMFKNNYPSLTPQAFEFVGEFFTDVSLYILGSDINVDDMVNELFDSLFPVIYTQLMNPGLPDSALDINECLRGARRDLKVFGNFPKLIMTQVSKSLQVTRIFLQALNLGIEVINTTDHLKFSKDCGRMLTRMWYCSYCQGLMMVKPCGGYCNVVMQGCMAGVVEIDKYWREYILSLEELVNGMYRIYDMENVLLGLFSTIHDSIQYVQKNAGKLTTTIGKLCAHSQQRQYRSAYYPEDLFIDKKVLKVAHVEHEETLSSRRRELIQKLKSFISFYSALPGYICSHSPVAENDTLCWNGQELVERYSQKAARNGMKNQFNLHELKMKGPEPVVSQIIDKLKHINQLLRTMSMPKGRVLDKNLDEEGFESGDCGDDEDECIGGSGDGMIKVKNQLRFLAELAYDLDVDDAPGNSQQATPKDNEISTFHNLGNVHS

[2] = biological target: T5, soluble hGPC3 protein (recombinant …); experiment: BLI, 1:1 global fit; KD Error 8.68E-11, R^2 0.9939
Description: (§1) Kinetics experiments were performed using the ForteBio Octet Red96 platform. All data were collected at 25° C. with orbital shaking at 1,000 rpm in 200 μL in 96-well black flat bottom plates (Greiner Bio-one). Anti-hIgG Fc Capture Sensor (ForteBio) were equilibrated for 10 min in 1×kinetics buffer prior to loading with 5 μg/mL of mAbs for 2 min. After the loading step, a 30 s baseline in 1×kinetics buffer was established before association with a range of concentrations of GPC3 for 2 min. Following mAbs association with GP, there was a 10-minute of dissociation step in kinetic buffer. For all experiments, two reference sensors without association to mAbs were used to account for nonspecific binding of analyte to the sensor and the system drift. All data were fit globally to a 1:1 Langmuir binding model using data analysis software 9.0 (ForteBio).

[3] = biological target: T1, N1 peptide (AA25-39 of hGPC3); experiment: ELISA on plate-coated synthetic peptide, anti-human IgG-HRP
Description: (§2) 96-well Flat-Bottom Immuno Plates (from Thermo Fisher) were coated with 4 ug of PBS-diluted peptides, overnight, at […]. 1 ug of rhGPC3 (from Creative Biomart) was used as positive control. The next day, peptides were discarded and plates were blocked with 100 μl of 5% non-fat milk in PBS. Then, the plates were washed with 300 μl/well of PBST (0.1% Tween20). Next, incubation with 100 uL/well of different antibody dilutions. This was followed by four washes with PBST. Then, incubation with 100 uL/well of anti-human IgG-HRP (From KPL) (1:2000 dilution). This was followed by four washes with PBST. Next, 100 uL/well of TMB (from Biolengend), incubation for 30 minutes. Then, 100 uL/well of 2N H2SO4. Lastly, OD450 nm was detected in an xMark™ Microplate Spectrophotometer (from BIO-RAD). If not indicated otherwise, incubations were performed for 1 hour at RT, and antibodies were diluted in 2% non-fat milk in PBS.

[4] = biological target: T5, soluble hGPC3 protein (recombinant …); experiment: BLI, 1:1 global fit; kon Error 4.12E+02, R^2 0.9939
Description: as §1

[5] = biological target: T5, soluble hGPC3 protein (recombinant …); experiment: BLI, 1:1 global fit; kdis(1/s); kdis Error 3.37E-06, R^2 0.9939
Description: as §1

[6] = biological target: T5, soluble hGPC3 protein (recombinant …); experiment: BLI (Octet Red96), mAb captured on anti-hIgG Fc sensor, GPC3 as analyte, 1:1 fit, 25 C; BLI, soluble hGPC3
Description: as §1
(§3) The 3 mAbs belong to different Ig classes, i.e., 6G11 and 12D7 are IgM, whereas 8F8 is IgG2a. To fairly compare their affinity, mAbs were generated recombinant using their VL and VH and a same human IgG constant region. Fig.3A illustrates the structure of the recombinant mAbs. The mAbs were expressed and purified from 293 cells (FIG 3B). […] The mAb's affinity was also studied by BioLayer Interferometry (BLI). […] The affinity data obtained by ELISA assay and BLI are in the same order, i.e., 6G11>12D7>8F8. Because the purpose of developing the mAbs is to bind hGPC3 molecules on the tumor cell surface, we determined the affinity of the mAbs for hGPC3 on HepG2 cells.

[7] = biological target: T6, hGPC3 on the surface of HCC tumor cells (HepG2; hGPC3low Huh7) (human, UniProt P51654 25-554); experiment: immunofluorescent staining of HepG2 cells at different mAb concentrations, percent positive cells; hGPC3 on HepG2 cells
T6 construct: whole, on cells; GPI-anchored; also called hGPC3 on HepG2 cells; hGPC3 molecules on the tumor cell surface
T6 sequence (P51654 25-554 limits assumed): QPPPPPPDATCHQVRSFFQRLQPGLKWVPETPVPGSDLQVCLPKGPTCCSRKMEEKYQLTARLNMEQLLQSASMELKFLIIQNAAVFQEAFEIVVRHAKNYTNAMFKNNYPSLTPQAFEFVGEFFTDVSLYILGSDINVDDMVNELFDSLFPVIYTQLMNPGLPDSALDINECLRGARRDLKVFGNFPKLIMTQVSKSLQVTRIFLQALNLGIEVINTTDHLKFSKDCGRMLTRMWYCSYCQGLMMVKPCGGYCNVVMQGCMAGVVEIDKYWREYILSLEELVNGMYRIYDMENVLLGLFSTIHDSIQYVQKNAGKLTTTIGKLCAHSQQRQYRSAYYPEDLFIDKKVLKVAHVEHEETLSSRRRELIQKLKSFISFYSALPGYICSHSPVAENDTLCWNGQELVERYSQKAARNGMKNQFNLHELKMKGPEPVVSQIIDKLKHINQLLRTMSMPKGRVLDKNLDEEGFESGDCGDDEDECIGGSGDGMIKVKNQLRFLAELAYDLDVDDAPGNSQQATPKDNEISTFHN
Description: FIG. 3A is an illustration showing the schematic structure of the recombinant mAbs. SP: signal peptide of human IgG; VL: variable region of light chain; VH: variable region of heavy chain; CL: constant region of human IgG light chain; CH: constant region of human IgG heavy chain. FIG. 3B is gel showing PAGE analysis of purified recombinant mAbs under reduced and non-reduced condition. mAbs were purified from the 293 cells after co-transfection of the L and H chain expressing plasmids. Gel was stained with SimplyBlue SafeStain, FIG. 3C is a graph showing the EC50 of recombinant mAbs by ELISA. FIG. 3D is a panel of graphs showing the Kd value of each mAbs was measured by BLI. Each experiment was repeated at least 3 times and similar data were obtained. FIG. 3E is a graph showing the Kd value of mAbs 6G11, 8F8, and 12D7 for staining HepG2 tumor cells. Immunofluorescent staining was conducted for HepG2 tumor cells using the mAbs at different concentration. Based on the percent of positive cells and the mAb concentration, the Kd value was calculated by Prism software.
as §3

[8] = biological target: T7, hGPC3-N fragment (AA1-358) (human, UniProt P51654 25-358); experiment: flow cytometry, intracellular staining of 293 cells transfected with hGPC3-N; gate set on untransfected cells
T7 construct: range 1-358; Detected by intracellular staining or western blot of transfected 293/293T cells
T7 sequence (P51654 25-358 limits assumed, form in doubt): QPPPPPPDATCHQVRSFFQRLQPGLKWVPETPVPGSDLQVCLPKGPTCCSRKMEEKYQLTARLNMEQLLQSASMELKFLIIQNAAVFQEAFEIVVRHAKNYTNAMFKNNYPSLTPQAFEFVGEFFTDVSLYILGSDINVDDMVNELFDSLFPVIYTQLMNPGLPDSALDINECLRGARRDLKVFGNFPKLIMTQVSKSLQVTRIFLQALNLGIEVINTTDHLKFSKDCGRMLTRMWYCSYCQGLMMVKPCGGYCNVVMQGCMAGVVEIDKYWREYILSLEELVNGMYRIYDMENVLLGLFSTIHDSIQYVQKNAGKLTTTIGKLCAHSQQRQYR
Description: FIG. 1A is a table of 22 hGPC3-specific mAbs identified by ELISA assay. Their Ig class, staining of HepG2 cells, and binding of the hGPC3 N- or C-fragment were provided. […] FIG. 1B is a panel of micrographs showing representative immunofluorescent stainings of HepG2 tumor cells by 5 mAbs. FIG. 1C is a diagram of plasmids expressing the N- and C-fragments of hGPC3. FIG. 1D is a panel of graphs showing 293 cells transfected with either hGPC3-N or hGPC3-C plasmid intracellularly stained with indicated mAbs. The gate was set by the parental 293T cells without transfection.

[9] = biological target: T5, soluble hGPC3 protein (recombinant …); experiment: BLI, 1:1 global fit; KD Error 2.90E-10, R^2 0.9993
Description: as §1

[10] = biological target: T5, soluble hGPC3 protein (recombinant …); experiment: BLI, 1:1 global fit; kon Error 8.02E+01, R^2 0.9993
Description: as §1

[11] = biological target: T5, soluble hGPC3 protein (recombinant …); experiment: BLI, 1:1 global fit; kdis(1/s); kdis Error 1.83E-06, R^2 0.9993
Description: as §1

[12] = biological target: T5, soluble hGPC3 protein (recombinant …); experiment: BLI, 1:1 global fit; KD Error 9.61E-11, R^2 0.9958
Description: as §1

N2 (30-68) = biological target: T2, N2 (30-68); experiment: ELISA on plate-coated synthetic peptide, anti-human IgG-HRP
Description: as §2

N3 (59-97) = biological target: T3, N3 (59-97); experiment: as above
Description: as §2

N4 (88-126) = biological target: T4, N4 (88-126); experiment: as above
Description: as §2

[13] = biological target: T5, soluble hGPC3 protein (recombinant …); experiment: BLI, 1:1 global fit; kon Error 2.81E+02, R^2 0.9958
Description: as §1

[14] = biological target: T5, soluble hGPC3 protein (recombinant …); experiment: BLI, 1:1 global fit; kdis(1/s); kdis Error 2.89E-06, R^2 0.9958
Description: as §1

Row | Binder | EC50 [1] | binding result [3] | Kd [6] [nM] | EC50 [7] [nM] | % of cells in the positive gate [8] [%] | other results
1 | recombinant mAb 6G11 (6G11 VL and VH fused to human IgG constant regions) (antibody, V domains shown, Expressed in 293 cells; only the claims assign heavy and light; also called 6G11 mAb) VH: QVQLQQPGSELVRPGASVKLSCKASGYTFTSCWMHWVKQRPGQGLEWIGNIYPGYGNTNYDEKFKNKATLTVDTSSSTAYMQLSGLTSEDSAVYYCTRGSYLYAMDYWGQGTSVTVSS VL: DIQMNQSPSSLSASLGDTITITCHASQNINVWLSWYQQKPGNIPKLLIYKASNLHTGVPSRFSGSGSGTGFTLTISSLQPEDIATYYCQQGQSYPWTFGGGTKLEIKR | 0.0072 µg/mL and 0.047 nM | binds | 7.4 | 0.095 | – | Kd [2]: 7.43 nM; kon [4]: 52400 M⁻¹ s⁻¹; koff [5]: 0.000389 s⁻¹
2 | mAb 6G11 (mouse hybridoma antibody) (antibody, V domains shown, Mouse IgM with kappa light chain, from hybridoma; claim 21 names 5 and 7 as the amino acid entries) VH: QVQLQQPGSELVRPGASVKLSCKASGYTFTSCWMHWVKQRPGQGLEWIGNIYPGYGNTNYDEKFKNKATLTVDTSSSTAYMQLSGLTSEDSAVYYCTRGSYLYAMDYWGQGTSVTVSS VL: DIQMNQSPSSLSASLGDTITITCHASQNINVWLSWYQQKPGNIPKLLIYKASNLHTGVPSRFSGSGSGTGFTLTISSLQPEDIATYYCQQGQSYPWTFGGGTKLEIKR | – | – | – | – | 44.3 | –
3 | recombinant mAb 12D7 (12D7 VL and VH fused to human IgG constant regions) (antibody, V domains shown, Expressed in 293 cells; only the claims assign heavy and light; also called 12D7 mAb) VH: QVQLQQPGSELVRPGASVKLSCKASGYTFTSYWMHWVKQRLGQGLEWIGNIYPGSGSTNYDEKFKSKGTLTVDTSSSTAYMHLSSLTSEDSAVYYCTRGDYDWVFAYWGQGTLVTVSA VL: DIVMTQSQKFMSTSVGDRVSVTCKASQNVGTNVAWYQQKPGQSPKALIYSASYRYSGVPDRFTGSGSGTDFTLTISNVQSEDLAEYFCQQYNSYPLTFGAGTKLELKR | 0.125 µg/mL and 0.82 nM | no binding (tested: 10 µg/ml) | 9.8 | 0.1 | – | EC50 (read off the curve) [1]: ~0.1 µg/mL; Kd [12]: 9.76 nM; binding result (N2 (30-68)): no binding (tested: 10 µg/ml); binding result (N3 (59-97)): no binding (tested: 10 µg/ml); binding result (N4 (88-126)): no binding (tested: 10 µg/ml); kon [13]: 41500 M⁻¹ s⁻¹; koff [14]: 0.000405 s⁻¹
4 | mAb 12D7 (mouse hybridoma antibody) (antibody, V domains shown, Mouse IgM with kappa light chain, from hybridoma) VH: QVQLQQPGSELVRPGASVKLSCKASGYTFTSYWMHWVKQRLGQGLEWIGNIYPGSGSTNYDEKFKSKGTLTVDTSSSTAYMHLSSLTSEDSAVYYCTRGDYDWVFAYWGQGTLVTVSA VL: DIVMTQSQKFMSTSVGDRVSVTCKASQNVGTNVAWYQQKPGQSPKALIYSASYRYSGVPDRFTGSGSGTDFTLTISNVQSEDLAEYFCQQYNSYPLTFGAGTKLELKR | – | – | – | – | 43.2 | –

Now from value to binder, other results behind:

Row | EC50 [1] | binding result [3] | Kd [6] [nM] | EC50 [7] [nM] | % of cells in the positive gate [8] [%] | Binder | other results
5 | 0.294 µg/mL and 1.93 nM | – | 23 | 12 | – | recombinant mAb 8F8 (8F8 VL and VH fused to human IgG constant regions) (antibody, V domains shown, Expressed in 293 cells; only the claims assign heavy and light; also called 8F8 mAb) VH: EVKLVESGGDLVKPGGSLKLSCAASGFTFSRYGLSWVRQTPEKRLEWVATISGSGSYTYYPDSVKGRFTISRDNAKNNLYLQMSSLRSEDTALYYCVRRGTYGYDNWGQGTTLTVSS VL: not shown | Kd [9]: 22.9 nM; kon [10]: 8970 M⁻¹ s⁻¹; koff [11]: 0.000206 s⁻¹
6 | – | – | – | – | 0.31 | mAb 8F8 (mouse hybridoma antibody) (antibody, V domains shown, Mouse IgG2a with kappa light chain, from hybridoma) VH: EVKLVESGGDLVKPGGSLKLSCAASGFTFSRYGLSWVRQTPEKRLEWVATISGSGSYTYYPDSVKGRFTISRDNAKNNLYLQMSSLRSEDTALYYCVRRGTYGYDNWGQGTTLTVSS VL: not shown | –
